Experimental data reported in US6051224, “Compositions and methods for targeting cells and modulating pulmonary surfactant secretion” (Thomas Jefferson University, dated 2000).

Target: purified recombinant human surfactant protein A (human, UniProt Q8IWL2, 125I radioiodination using chloramine T)
Assay: ligand blot of lysogen proteins (SDS-PAGE, PVDF, 125I-SP-A)

B1: recombinant porcine SP-A recognition protein (SPAR) encoded by the 1.8-kb porcine lung cDNA, expressed from lambda gt11 in E. coli Y1089 (receptor)
chain: MDMCYGMMGSLFRSGSRQTLFASQVMRYADLYAASFINLLYYPFSYLFRAAHVLMPHESTVEHTHVDINEMESPLATRNRTSVDFKDTDYKRHQLTRSISEIKPPNLFPLAPQEITHCHDEDDDEEEEEEEEECGGKPKLSALIKQVLAGLTGAKAVSLWVLVGGGGLHQRYILESFLKTLKYSNHREILVLVFCICTLCSWFRIVRESVSEERKGQAGLNCMQLAPLWFVTLFHHQYIIVYPETRRVVEGPRVKQRQWEEVIQKCYGTNWALTTKTHLFQCIT
- binding result: binds
